Experimental findings from PMC6167357 (2018) are described below.

“And” between values parts separate entries of the source, which are not always exact repeats. Equal values may be shown once.

This test has as its target F-actin (Sus scrofa). In words: co-sedimentation.

B1: titin N2A Ig80-IS-Ig81-Ig82-Ig83 (protein)
chain: SIRVVEKTTATFIAKVGGDPIPNVKWTKGKWRQLNQGGRILIHQKGDEAKLEIRDTTKTDSGLYRCVAFNKHGEIESNVNLQVDERKKQEKIEGDLRAMLKKTPALKKGSGEEEEIDIMELLKNVDPKEYEKYARMYGITDFRGLLQAFELLKQSQEEETHRLEIEELEKSERDEKEFEELVAFIQQRLTQTEPVTLIKDIENQTVLKDNDAIFEIDIKINYPEIKLSWYKGTEKLEPSNKYEISIDGDRHTLRVKNCQPKDQGNYRLVCGPHIASAKLTVIEPAWERHLQDVTLKEGQTCTMTCQFSVPNVKSEWFRNGRVLKPQGRVKTEVEHKVHKLTIADVRAEDQGQYTCKHEDLETSAELRIEAEPIQFTKRIQNIVVSEHQSATFECEVSFDDAIVTWYKGPTELTESQKYNFRNDGRCHYMTIHNVTPDDEGVYSVIARLEPRGEARSTAELYLTTKEIKLEMKPPDIPDSRVPIPTMPIRAVPPEEIPPAVAPSIPLLLPLP
One may read the Kd as the free concentration of one partner at which half of the binding sites on the other are occupied at equilibrium, for simple one-to-one binding. A low value points to a tighter complex. As for B1, the Kd is ~17 µM and ~7 µM.
